# According to publication PMC4502523:
# Experiments:
# CC(N)Cc1ccc(Cl)cc1 = assay: cells, lysate or membranes
# CSc1ccc(CC(C)N)cc1 = assay: cells, lysate or membranes
substance,measurement,setting,value
human SERT (hSERT) (Homo sapiens),Km,CC(N)Cc1ccc(Cl)cc1,3.3 ± 0.9 µM
same,Km,CSc1ccc(CC(C)N)cc1,6.1 ± 2.3 µM
